To fix the notation:
B1: Enterovirus AN12 (nucleic acid, listed as Enterovirus sp.)
DNA: TACCGCTGCACCAGTGAGCTGGTACGCTAGTACCTTCGCACGGAGTAGATGGCATCCCCCACCCCGTAACTTAGAAGCAAAGTACACATCTGGCCAATAGTGGCGCTGCATCCAGCCGCGCAACGGTCAAGCACTTCTGTTTCCCCGGTCCGCAAGGGTCGTTATCCGCCCAGTCCACTACGGAAAGCCTACTAACCATTGAAGCTATCGAGAGGTTGCGCTCGGCCACGACCCCGGTGGTAGCTCTGAGTGATGGGGCTCGCAAACACCCCCGTGGTAACACGGATGCTTGCCCGCGCGTGCACTCGGGTTCAGCCTATTGGTTGTTCACCTCAACATAGTGTAAATGGCCAAGAGCCTACTGTGCTGGATTGGTTTTCCTCCGGAGCCGTGAATGCTGCTAATCCCAACCTCCGAGCGTGTGCGCACAATCCAGTGTTGCTACGTCGTAACGCGTAAGTTGGAGGCGGAACAGACTACTTTCGGTACTCCGTGTTTCTTTTGTTTTATTTTGAATTTTATGGTGACAATTGCTGAGATTTGCGAATTAGCGACTCTACCGCTGAACATTGCCCTGTACTACCTAATCGCATTTCACAAAACCTCAGAGATACCAAGCTCTTACATTGATCTGCTTGTTTTCCTGAATCTCAAATATAAATTGGAACAAGCAAA
B2: Equine rhinitis A virus (nucleic acid)
DNA: AAGGGTTACTGCTCGTAATGAGAGCACATGACATTTTGCCAAGATTTCCTGGCAATTGTCACGGGAGAGAGGAGCCCGTTCTCGGGCACTTTTCTCTCAAACAATGTTGGCGCGCCTCGGCGCGCCCCCCCTTTTTCAGCCCCCTGTCATTGACTGGTCGAAGGCGCTCGCAATAAGACTGGTCGTTGCTTGGCTTTTCTATTGTTTCAGGCTTTAGCGCGCCCTTGCGCGGCGGGCCGTCAAGCCCGTGTGCTGTACAGCACCAGGTAACCGGACAGCGGCTTGCTGGATTTTCCCGGTGCCATTGCTCTGGATGGTGTCACCAAGCTGGCAGATGCGGAGTGAACCTTACGAAGCGACACACCTGTGGTAGCGCTGCCCAGAAGGGAGCGGAGCTCCCCCGCCGCGAGGCGGTCCTCTCTGGCCAAAAGCCCAGCGTTAATAGCGCCTTCTGGGATGCAGGAACCCCACCTGCCAGGTGTGAAGTGGACTAAGTGGATCTCCAATTTGGCCTGTTCTGAACTACACCATCTACTGCTGTGAAGAATGTCCTGAAGGCAAGCTGGTTACAGCCCTGATCAGGAGCCCCGCTCGTGACTCTCGATCGACGCGGGGTCAAAAACTGTCTAAGCAGCAGCAGAAACGCGGGAGCGTTTCTTTTTCCTCATTTGTTTC
modifications: Equine rhinitis A virus
B3: Enterovirus sp. isolate CPML (nucleic acid, listed as Enterovirus sp.)
DNA: ACTCTGGTATCACGGTACCTTTGCACGCCTATTTTATACCCCTTCCCCATCGTAACTTAGAAGCAACAAACAAACTGCCCAATAGCAGCACAACACCCAGTTGTGTTAGGGGCAAGCACTTCTGTTTCCCCGGAAGGGTCTGACGGTATGCTGTACCCACGGCAGAAGTATGACCTACCGTTAACCGGCCATGTACTTCGAGAAGCCTAGTACCATTATGAAGGTTGATTGATGTTACGCTCCCCAGCAACCCCAGCTGGTAGTTCTGGTCGATGAGTCTCGGCATTCCCCACGGGCGACCGTGGCCGAGGCTGCGTTGGCGGCCAGCCTACACCATACGGTGTAGGACGTCAAGATACTGACATGGTGTGAAGAGCCTATTGAGCTACGTGGTAGTCCTCCGGCCCCTGAATGCGGCTAATCCTAACTCCGGAGCATCCGCCAGTAAGCCCACTGGAAGGGTGTCGTAATGCGAAAGTCTGGAGCGGAACCGACTACTTTGGGTGTCCGTGTTTCCTGTTTTACTTATTGTTTGGCTGCTTATGGTGACAACTTATAGTTATCATCATAAGCTACTTGGTCTTGCCAACCGGAGAATTATTTGGTTATTTGTTGGTTTCATAAACCTACAGTCGTATTTTCCTGTCTTATTAATTGTTCTCAAAATTAACAACA
B4: Dianke virus (nucleic acid)
DNA: TGTTTTCAACCATAATACTACTACTACAAGTATAAAACCCCGTCCGTCTGTCGGAGACGCTAAACTCTGACCACCAATCTAGCCACATCAGTTGCTTAAAGAACCTCTTGAGACACTCTCCCACTTAACATCTTTTAGGAATCTTCGATGCTACAACAACTTGGCTAGTGAACAATAAATCCGTACAATTCACAGTTGTAAGAGGCCATAGGTCCAGACTTTGAAAGGTTTGTTTCTATTGTTACAAATACTTAGATTAACAGAGGCTATTTAATAGTGCTCATCACGTTAACAGAGTAACCTTGTGCAATAGTATGAGCTTGTTGTAAAACGTCTTGATACGACACC
B5: Guereza hepacivirus (nucleic acid, listed as Hepacivirus sp.)
DNA: CACTCAATACTACACTCCGCATTTGGGGAGAAGCGCTGGCGTTCGCGGAACCGCGTTAACCATACGCGTAGTACGAGTGCGACAGACCCCGGTGCTACTGGTGGTAGCGAGACACGAGCCGAAGTCTGTGGGGGGAACTCCACTTAGAGGGCATGCCCGGGCGTAGGCTTCTGAGTTGGGATGGGCCCCAACTTGGCCCCTGAGTGGGGGGGTGTTACGACCTGATAGGGTGCGGGCTGGCGCCTACCACTTTCCAGTCGTACATGAGTC
B6: Megirivirus A LY (nucleic acid)
DNA: TTCGGGACACTGGATGGGCGACTTGGTGGGGCTGCCACTCTATCTTGACCTTTCGTTACTGACTTTCGGATCTCTGACTCCTCCTTGTCTCTTGCGTTTGGTCCACGGACGGACTAATTGGAATGTTTACTGGCTAAGCCTCGTTCTGAAATACCCTAGCCAATGGGTTGTAGTAGGATCCTGGTGTTTCCATTAAACCTCTTCCGACCATAGTAGCTAGAGTTATGGCTGTGTAGGATGTGGGTAAGACCGCTTTTTGCGTATCTCCCACAAGACACCGGATTATGGATGTGTCCGCTGGATAAGGCTCGAAACCTCCCAACTGAAGGTGGTGCTGAAATATTGCAAGCCTAGGTTGTGTAGAGGCAAGTAGATGCCTGCCGCGACATTCGTCTTCCGCCCTTTTGGGTTAGTAGTGTACCTACATGGACGTGGGGCTGGGAATCCCCACCTTGCATAACACTGGTTGATAGACCTGCGGCTGGTCAAGTTACTATGGTATAACCAGTTGAAATGGCT
B7: Dolphin morbillivirus (nucleic acid, listed as Morbillivirus sp.)
DNA: ACCAGACAAAGCTGGCTAGGGGTAGAATAACAGATAATGATAAATTATCATACTTAGGATTAATGATCCTATCAATTGGCACAGGATTTGGATAAAGGTTCACAGTC
modifications: chemistry not fully specified; the letters are possibly those of the target site
B8: Equine arteritis virus (nucleic acid)
DNA: GCTCGAAGTGTGTATGGTGCCATATACGGCTCACCACCATATACACTGCAAGAATTACTATTCTTGTGGGCCCCTCTCGGTAAATCCTAGAGGGCTTTCCTCTCGTTATTGCGAGATTCGTCGTTAGATAACGGCAAGTTCCCTTTCTTACTATCCTATTTTCATCTTGTGGCTTGACGGGTCACTGCCATCGTCGTCGATCTCTATCAACTACCCTTGCGACT

In this data set the test system is HEK293 cells. Format: cell-based, human. Particulars: luminescence from secreted Gluc in supernatant 24 hours after transfection of HEK293 cells; circular RNA encoding Gluc with the named IRES (UTR truncated to 675 nt).
Consider B1, for which the Expression came out at 3.87E+06.

Molecule B2 yielded an Expression of 3.73E+05.

B3: the Expression was determined as 6.83E+07.

B4 registered an Expression of 1.35E+05.

Molecule B5 displayed an Expression of 1.38E+05.

In turn, B6 showed an Expression of 1.80E+06.

B7 returned an Expression of 1.22E+05.

As for B8, the Expression amounted to 1.89E+05.
